Series [1] has as its target T1, SpCID1 (Schizosaccharomyces pombe, UniProt O13833).
T1 sequence (O13833 1-405): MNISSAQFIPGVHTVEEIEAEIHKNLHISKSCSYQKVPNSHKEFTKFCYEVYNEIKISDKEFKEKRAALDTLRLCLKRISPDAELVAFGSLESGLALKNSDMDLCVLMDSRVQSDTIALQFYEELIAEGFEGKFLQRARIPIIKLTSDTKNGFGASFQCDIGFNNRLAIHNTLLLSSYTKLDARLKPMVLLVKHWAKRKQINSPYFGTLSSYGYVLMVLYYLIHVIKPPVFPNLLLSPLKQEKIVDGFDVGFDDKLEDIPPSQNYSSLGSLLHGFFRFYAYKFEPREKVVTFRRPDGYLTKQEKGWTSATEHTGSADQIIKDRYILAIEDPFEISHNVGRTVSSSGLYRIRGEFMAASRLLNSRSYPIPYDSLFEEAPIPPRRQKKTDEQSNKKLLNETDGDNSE
The experiment in a line: fluorescence titration. The format is binding.

The target of series [2] is T2, SpCID1 (caffeine-induced death suppressor 1, terminal uridylyl transferase) (Schizosaccharomyces pombe, UniProt O13833 1-405).
T2 sequence: T1 sequence (O13833 1-405)
The series is described as follows: fluorescence titration.

Series [3] concerns the target T2, SpCID1 (caffeine-induced death …). The experiment in a line: EMSA. (In general: A gel shift assay detects complexes by their altered migration in electrophoresis.)

For orientation: Kd means a measure of binding affinity in units of concentration. Low readings indicate higher affinity, high ones lower affinity.

As to `O=c1[nH]c(=O)n([C@@H]2O[C@H](COP(=O)(O)OP(=O)(O)OP(=O)(O)O)[C@@H](O)[C@H]2O)cc1-c1cc2ccccc2o1` [compound 2, BFUTP], binding in series [1] was put at a Kd of 0.18 ± 0.04 µM.

Take UUACCAUAGAAUCAUGUGCCAUACAUCAU (ssRNA, 3'-terminal U (position 29) is 5-benzofuran-uridine (BFU)) [4BFU]: in series [2], binding was characterised by a dissociation constant (Kd) of 0.52 ± 0.04 µM. As for UUACCAUAGAAUCAUGUGCCAUACAUCAU (ssRNA, 3'-terminal U (position 29) is 5-benzofuran-uridine (BFU)) [3BFU], the Kd in series [3] was about 5.4 µM.

For the origin of these results see PMC7611084 (Chemical communications (Cambridge, England), 2020).
